B1: CPEB3 Ribozyme (parent)
chain: UAACAGGGGGCCACAGCAGAAGCGUUCACGUCGCAGCCCCUGUCAGAUUCUGGUGAAUCUGCGAAUUCUGCUGUAUAUCUC

Variants of: B1
Test: self-cleavage, relative activity (ratio to wild type); higher = more cleavage; in vitro, sequencing
Outline: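 Relative activity was defined as the cleaved/total read fraction for a variant divided by the same fraction for the unmutated ribozyme. CPEB3 self-cleaving ribozyme libraries were made by rounds of error-prone PCR, barcoded, and transcribed in vitro with T7 RNA polymerase for 5 hours at 37°C, and cleavage ran through transcription plus a 15 min DNase I step before EDTA. Illumina sequencing of template-switched reverse transcripts gave the reads, and DNA sequencing mapped the barcodes. Averages come from three batches, using variants with at least 5 reads.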

Variant | self-cleavage
C50A A77U | 0.67
U49G A75G | 0.42
U48C G61A | 0.33
U48C G61C | 0.18
U49G G63A | 0.28
U48C A56G | 0.38
U48C A56U | 0.38
U48C A56C | 0.33
U49A C71G | 0.24
U49A C71U | 0.26
U48G U72A | 0.44
U48G U72C | 0.44
C50A U74C | 0.87
U48C G55C | 0.36
U48C G55A | 0.32
U48A U66G | 0.43
U48A U66A | 0.36
U48A U66C | 0.16
U49G A77G | 0.39
C50U A64G | 0.99
C50U A64U | 0.52

Variant | self-cleavage
U48G A65G | 0.23
U48C C50A | 0.25
U48C C50U | 0.54
U49A U76C | 0.69
U48G U49A | 0.52
U48G U49C | 0.46
U49C U66A | 0.31
U49C U66G | 0.29
U49C U66C | 0.25
U49C G55A | 0.18
U49C G55U | 0.24
U48G U66C | 0.45
U48C G63C | 0.47
U48C G63A | 0.64
U48C G63U | 0.57
C50G | 0.8
C50U | 1.01
C50A | 0.88
U49A U78G | 0.6
U49A U78C | 0.57
U49C U74A | 0.71

Variant | self-cleavage
U49C U74G | 0.59
U49C U74C | 0.65
U48A U72A | 0.22
U48A U72G | 0.58
U48A U72C | 0.45
U48C C62U | 0.33
C50A G73A | 1.24
U48C U69C | 0.32
U48C U69A | 0.37
U48C U69G | 0.36
U48G A57C | 1.11
U48G A57U | 1.07
U48G A57G | 0.4
U49C G61C | 0.33
U49C G61A | 0.19
C50U A56G | 0.85
C50U A56U | 0.82
U48A U60G | 0.19
U48A U60C | 0.14
U49C G73A | 0.73
U49C G73U | 0.77

Variant | self-cleavage
U49C C81U | 0.68
U49C C81A | 0.76
U49C C81G | 0.51
U49C U80C | 0.61
U49C U80G | 0.49
U49C U80A | 0.51
U48C G70A | 0.19
U48C G70C | 0.21
U48C U58C | 0.34
U48C U58G | 0.25
U48C U58A | 0.23
U49C C68U | 0.24
U49C C68A | 0.15
C50G A56U | 0.45
U49A U69A | 0.34
U49A U69C | 0.44
U49A U69G | 0.61
C50A U54A | 0.88
C50A U54C | 0.83
U48A U76C | 0.67

From the RNAGym collection of RNA variant scans (doi:10.1093/nar/gkz1192)
